Test results from doi:10.1101/2025.02.05.636571.

Tested on: P41676
Experiment: SEC

Q: How did the “percent in the monomer peak” value turn out when “PK2 C181S/C211S (full-length PK2 from the baculovirus AcMNPV, stable mutant, C-terminal His-tag)” was run?
A: monomer (62%)
